The record followed here is publication PMC6638984, “Increased association between Epstein-Barr virus EBNA2 from type 2 strains and the transcriptional repressor BS69 restricts EBNA2 activity” (PLoS Pathogens, 2019).

First the molecules themselves.
B1: type 2 EBNA2 polypeptide T2 EBNA2_(348-422) [Epstein-Barr virus type 2 (AG876)] / BS69 coiled-coil MYND domain (BS69_(CC-MYND), amino acids 480-602) [human] (parent)
chain 1: SMPQLSPVVSLHQGQGPENSPTPGPSTAGPVCRVTPSATPDISPIHEPESSDSEEPPFLFPSDWYPPTLEPAELD
chain 2: DRMKSDHKRETERVVREALEKLRSEMEEEKRQAVNKAVANMQGEMDRKCKQVKEKCKEEFVEEIKKLATQHKQLISQTKKKQWCYNCEEEAMYHCCWNTSYCSIKCQQEHWHAEHKRTCRRKR

The variants in this assay derive from B1. The assay is described as follows: ITC. Conditions: with BS69 coiled-coil MYND domain (BS69_(CC-MYND), amino acids 480-602) [human], two-site model, 29 injections of 1.3 μl 0.3 mM EBNA2 polypeptide and 0.1 mM BS69CC-MYND in the cell.
[1] abbreviates: binding event 1 (KD1), parent: 9 nM.
Where [2] appears, read: binding event 2 (KD2), parent: 91 nM.

A word on the Kd: it is the concentration at which binding is half-saturated. As to chain 1 SMPQLSPVVSLHQGQGPENSPTPGPSTAGPVCRVTPSATPDISPIHEPESSDSEEPPFLFPDDWYPATAEAAELD, the dissociation constant Kd is 8 nM under setting [1] and 200 nM under setting [2].
Consider chain 1 SMPQLSPVVSLHQGQGPENSPTPGPSTAGPVCRVTPSATPDISPIHEPESSDSEEPPFLFPDDWYPPTLEPAELD, for which the dissociation constant Kd under setting [1] stood at 5 nM and the equilibrium dissociation constant (Kd) under setting [2] came out at 94 nM.
